Data reported in patent publication US20210121527A1, “METHODS OF TREATING MINIMAL RESIDUAL CANCER” (ICAHN SCHOOL OF MEDICINE AT MOUNT SINAI, priority 2018, published 2021).

How the values were obtained:
HEp3 HNSCC cells = experiment: ERK/p38 activity ratio, dormancy mRNAs and NR2F1 in HEp3 cells; type: cell-based
Procedure: The effect on the ERK/p38 activity ratio is observed after 2-6 and 24 hours (second through fourth group of columns). In the first 30 minutes, ERK activity is stimulated by BMP7 (first column set). […] Arrows indicate NR2F1 flourescence. Differences in FIG. 13A and FIG. 13B, p<0.05 as calculated using Student's t test.
BMP7-F9 reduces the ERK/p38 activity ratio and induces various mRNAs in the dormancy signature (FIGS. 13A-13C). […] The effect on the ERK/p38 activity ratio is observed after 2-6 and 24 hours (second through fourth group of columns). In the first 30 minutes ERK activity is stimulated by BMP7 (first column set). […] Differences in FIG. 13A and FIG. 13B, p<0.05 as calculated using Student's t test.

T-HEp3 cells [1] = experiment: Cell titer blue proliferation assay; type: cell-based; details: 48 hours
T-HEp3 cells [2] = experiment: T-HEp3 tumors on chicken embryo chorioallantoic membranes (CAM); type: in vivo; details: 24 hours pre-treatment, then 50 ng/ml daily
Procedure: FIG. 14B is a schematic illustration of the in vivo experimental procedure used in FIGS. 14C-14D. T-HEp3 cells were pre-treated for 24 hours with BMP7-F9 in vitro and then inoculated on chicken embryo chorioallantoic membranes (“CAM”s) (FIG. 14C), where they were treated daily in vivo with vehicle or BMP7-F9 (50 ng/ml) prior to collection of the tumors and quantification of number of HEp3 HNSCC cells (FIG. 14D) and levels of P-H3 (FIG. 14E). Arrows in FIG. 14E indicate overlapping P-H3 and DAPI fluorescence.
FIG. 14B is a schematic illustration of the in vivo experimental procedure used in FIGS. 14C-14D. T-HEp3 cells were pre-treated for 24 hours with BMP7-F9 in vitro and then inoculated on chicken embryo chorioallantoic membranes (CAMs) (FIG. 14C), where they were treated daily in vivo with vehicle or BMP7-F9 (50 ng/ml) prior to collection of the tumors and quantification of number of HEp3 HNSCC cells/tumor (FIG. 14D) and levels of P-H3 (FIG. 14E).

HEp3-GFP HNSCC tumors = experiment: HEp3-GFP HNSCC tumor surgery model in NSG mice, local recurrence and lung DCCs; type: in vivo, mouse
Source text: FIGS. 15A-15C show the evaluation of BMP7-F9 treatment in a mouse model of disease. FIG. 15A is a schematic illustration of an in vivo experimental procedure used to evaluate the effect of BMP7-F9 on metastasis initiation. […] Tumors were then removed via surgery. 1-2 days after surgery, the adjuvant treatment with BMP7-F9 was continued for another 3, 4, or 6 weeks. Animals were then euthanized and the DCC burden in lung was scored using fluorescence microscopy. […] At those time points, the percentage of local recurrence and DCC incidence was scored. In FIG. 15C, mice were treated as in FIG. 15A, except that the adjuvant treatment was for 4 weeks. The number of GFP positive cells in dissociated lungs was scored following treatment. […] Note that the median of DCC burden drops one log and that BMP-7 apparently cures from DCCs 3 of 7 animals.
Tumors were then removed via surgery. 1-2 days after surgery, the adjuvant treatment with BMP7-F9 was continued for another 4 weeks. Animals were then euthanized and the DCC burden in lung was scored using fluorescence microscopy. […] NSG mice were treated following the protocol in FIG. 15A for 4 weeks. At those time points, the percentage of local recurrence and DCC incidence was scored. The number of GFP positive cells in dissociated lungs was scored following treatment. […] Note that the median of DCC burden drops one log and that BMP-7 apparently cures from DCCs 3 of 7 animals.

[3] = adjuvant treatment only, 3 weeks
[4] = adjuvant treatment only, 6 weeks
[5] = neo-adjuvant and adjuvant treatment, 4 weeks

B1: BMP7-F9: variant of human mature BMP7, homodimer of SEQ ID NO:8 (protein, listed as Homo sapiens)
chain: STGSKQRSQNRSKTPKNQEALRMANVAENSSSDQRQACKKHELYVSFRDLGWQDWIIAPEGYAAGYCEGECAFPLNSYMNATNHALVQTLVHVINPETVPKPCCAPTQLGAISVLYFDDSSNVILKKWRNMVVRACGCH
modifications: homodimer
HEp3 HNSCC cells; 10 ng/ml, 24 hours
  DEC2, p53 and p27 mRNAs: induces DEC2, p53, and p27 mRNAs
  nuclear NR2F1 (immunofluorescence): induces nuclear accumulation of NR2F1
HEp3 HNSCC cells; 2, 5 and 10 ng/ml, 2-6 and 24 hours
  ERK/p38 activity ratio (Western blot): reduces the ERK/p38 activity ratio over control
T-HEp3 cells [1]
  proliferation in vitro (cell titer blue): inhibits their proliferation in vitro
T-HEp3 cells [2]
  growth of T-HEp3 cells in vivo (CAM): induces growth arrest of T-HEp3 cells
HEp3-GFP HNSCC tumors; [3]
  +DCCs in lungs (animals): 5
  +local recurrence (animals): 1
  DCC incidence (%): 50.0%
  Local recurrence incidence (%): 9.1%
  Median number of GFP^+/Vimentin^+ tumor cells/lung: 0.62E+04
HEp3-GFP HNSCC tumors; [4]
  +DCCs in lungs (animals): 3
  +local recurrence (animals): 0
  DCC incidence (%): 42.9%
  Local recurrence incidence (%): 0.0%
  Median number of GFP^+/Vimentin^+ tumor cells/lung: 0
HEp3-GFP HNSCC tumors; [5]
  +DCCs in lungs (animals): 4
  +local recurrence (animals): 3
  DCC incidence in lungs %: 57.1%
  Median number of GFP^+/Vimentin^+ tumor cells/lung: 0.02E+04
  animals apparently cured from DCCs: 3 of 7
  local recurrence %: 42.9%
  median of DCC burden in lungs: drops one log
